Test [1] concerns the target T1, recombinant SPOCK1 protein (human, UniProt Q08629 22-439).
T1 sequence (looked up): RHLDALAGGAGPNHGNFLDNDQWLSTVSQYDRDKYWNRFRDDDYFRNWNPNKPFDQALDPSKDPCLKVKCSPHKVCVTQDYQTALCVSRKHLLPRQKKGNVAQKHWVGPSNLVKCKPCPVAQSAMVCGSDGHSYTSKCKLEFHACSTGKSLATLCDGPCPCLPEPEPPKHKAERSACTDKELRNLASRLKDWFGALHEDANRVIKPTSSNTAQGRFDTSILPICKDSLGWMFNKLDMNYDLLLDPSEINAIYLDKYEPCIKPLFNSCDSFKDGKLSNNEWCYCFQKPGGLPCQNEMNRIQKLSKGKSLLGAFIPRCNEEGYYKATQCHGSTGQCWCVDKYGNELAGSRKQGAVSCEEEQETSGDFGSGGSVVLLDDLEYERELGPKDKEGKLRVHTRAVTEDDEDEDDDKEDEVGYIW
As to the kind of experiment: SPR with recombinant protein.

The target of test [2] is T2, recombinant Plasmodium falciparum circumsporozoite protein (CSP) (Plasmodium falciparum, UniProt Q7K740 21-375).
T2 construct: also called recombinant CSP
T2 sequence (Q7K740 21-375 limits assumed): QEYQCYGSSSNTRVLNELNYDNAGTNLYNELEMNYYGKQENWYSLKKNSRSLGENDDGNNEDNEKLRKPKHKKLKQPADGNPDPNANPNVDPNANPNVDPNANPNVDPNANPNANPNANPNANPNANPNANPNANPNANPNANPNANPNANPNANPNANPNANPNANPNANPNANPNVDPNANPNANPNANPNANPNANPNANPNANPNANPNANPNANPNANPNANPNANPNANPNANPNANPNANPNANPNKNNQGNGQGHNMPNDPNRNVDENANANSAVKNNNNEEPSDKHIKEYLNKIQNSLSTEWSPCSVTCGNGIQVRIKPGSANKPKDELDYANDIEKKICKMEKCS
In words: binding affinity column of the in vivo table (SPR, CSP).

Test [3] addresses T2, recombinant Plasmodium falciparum …. As to the kind of experiment: SPR, recombinant CSP. (In general: In SPR one partner is held on a chip, and binding of the other changes the refractive index at the surface.)
For test [4], the target named is recombinant Plasmodium falciparum circumsporozoite protein (CSP) (Plasmodium falciparum, UniProt P19597 21-375). In words: cell-based or functional assay.
recombinant Plasmodium falciparum circumsporozoite protein (CSP) (Plasmodium falciparum, UniProt P19597 21-375), sequence (P19597 21-375 limits assumed): as the sequence (Q7K740 21-375 limits assumed) above
For test [5], the target named is T3, recombinant CNTNAP2 protein (human, UniProt Q9UHC6 28-1262).
T3 sequence (looked up): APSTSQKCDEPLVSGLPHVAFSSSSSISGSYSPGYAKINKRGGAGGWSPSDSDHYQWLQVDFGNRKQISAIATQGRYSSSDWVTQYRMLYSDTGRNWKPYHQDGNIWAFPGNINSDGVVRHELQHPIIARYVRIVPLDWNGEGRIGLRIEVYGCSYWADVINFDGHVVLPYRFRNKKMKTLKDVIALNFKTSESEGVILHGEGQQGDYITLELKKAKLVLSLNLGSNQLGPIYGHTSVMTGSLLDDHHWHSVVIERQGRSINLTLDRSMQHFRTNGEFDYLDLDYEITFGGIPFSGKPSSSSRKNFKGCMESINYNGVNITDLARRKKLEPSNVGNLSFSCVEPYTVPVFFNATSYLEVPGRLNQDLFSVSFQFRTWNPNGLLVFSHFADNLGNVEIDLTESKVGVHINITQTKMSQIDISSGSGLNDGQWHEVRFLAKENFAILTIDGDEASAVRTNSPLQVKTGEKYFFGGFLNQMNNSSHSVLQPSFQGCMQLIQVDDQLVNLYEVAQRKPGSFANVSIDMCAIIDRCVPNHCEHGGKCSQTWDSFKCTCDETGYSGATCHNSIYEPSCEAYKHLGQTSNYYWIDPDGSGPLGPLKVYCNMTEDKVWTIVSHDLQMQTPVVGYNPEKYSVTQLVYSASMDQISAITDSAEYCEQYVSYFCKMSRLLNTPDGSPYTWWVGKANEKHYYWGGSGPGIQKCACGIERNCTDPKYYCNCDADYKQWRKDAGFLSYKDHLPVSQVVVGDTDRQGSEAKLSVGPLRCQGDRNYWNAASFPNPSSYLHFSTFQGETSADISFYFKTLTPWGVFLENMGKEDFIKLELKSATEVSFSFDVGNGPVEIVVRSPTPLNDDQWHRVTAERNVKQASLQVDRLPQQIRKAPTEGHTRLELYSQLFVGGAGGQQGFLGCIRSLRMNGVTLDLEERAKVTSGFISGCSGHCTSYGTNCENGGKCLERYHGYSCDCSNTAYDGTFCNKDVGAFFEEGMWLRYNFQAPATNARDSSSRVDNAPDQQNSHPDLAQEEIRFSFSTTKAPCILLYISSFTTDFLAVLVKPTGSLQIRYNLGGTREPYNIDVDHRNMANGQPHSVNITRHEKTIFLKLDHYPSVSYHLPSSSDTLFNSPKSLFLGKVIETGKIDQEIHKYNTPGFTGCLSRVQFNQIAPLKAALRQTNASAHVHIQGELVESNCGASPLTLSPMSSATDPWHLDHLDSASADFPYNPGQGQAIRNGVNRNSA
In words: SPR with recombinant protein.

The results in this text go back to US20250296995A1 (GlaxoSmithKline, published 2025).

Several values for one entry are separate records, joined by “and”; a condition that tells them apart may be missing. Equal values may be shown once.

B1: 338-LS (antibody, V domains shown)
VH: QVQLVESGGGVVQPGRSLRLSCAASGFSFSTYGMHWIRQVPGKGLEWVAIIWHDGSKEFYADSVKGRFTISRDNSKKKLYLQMNSLRAEDTAIYYCVKDDFDSSGHSYFHYWGQGTLVTVSS
VL: GVVMTQSPLSLPVTLGQPASISCRSSQSLVHSDGNTYVHWFQQRPGQSPRRLIYKVSNRDSGVPDRFSGSGSGTDFTLKISRVEAEDVGVYYCMQGTQWWTFGQGTKVEIK
With B1, in test [1], the binding result is recorded as “no binding (tested: 300 nM)”.

B2: 338-ALE-LS (antibody, human IgG1, kappa, V domains shown)
VH: QVQLVESGGGVVQPGRSLRLSCAASGFSFSTYGMHWIRQVPGKGLEWVAIIWHDGSKEFYADSVKGRFTISRDNSKKKLYLQMNSLRAEDTAIYYCVKDDFDSSGHSYFHYWGQGTLVTVSS
VL: GVVMTQSPLSLPVTLGQPASISCRSSQSLVHSDGNTYVHWFQQRPGQSPRRLIYKVSNRDSGVPDRFSGSGSGTDFTLKISRVEAEDVGVYYCMQGTQWWTFGQGTKVEIKR
B2: the binding result in test [1] is “no binding (tested: 300 nM)”.

B3: AB-000222 (antibody, V domains shown)
VH: QVQLVESGGGVVQPGRSLRLSCAASGFTFSNFGMHWVRQAPGKGLEWVAVIWYDGSKKYYADFVKGRFTISRDNSKYMLYLQMTSLGAEDTAIYYCARDIRGAYRVTDGGFDYWGQGALVTVSS
VL: QFVLTQPPSVSGAPGQRVTISCTGSSFNIGAGYDVHWYQQLPEKAPKLLIYGSTNRASEVPDRFSGSKSGTSASLAITGLQPEDEADYYCQSYDSSLSGYVFGTGTKVTVL
Broadly, the Kd is the concentration at which binding is half-saturated. The term koff denotes the rate constant with which the complex falls apart. By kon is commonly meant a measure of how fast the partners come together. On to B3, for which the Kd in test [2] was 0.152 nM. For the same molecule, in test [3], the Kd is 0.153 nM and 0.152 nM; the koff stood at 0.00118 s⁻¹; the kon came to 7.76e+06 M⁻¹ s⁻¹.

B4: AB001428 (antibody, V domains shown)
VH: QVQLVESGGGVVQPGRSLRLSCVVSGFTFSSYGMHWVRQAPGKGLEWVAIIWYDGSKKYYADSVKGRFTISRDNSKNTLYLQMNSLRAEDTAVYYCARPGDSSGSHGEAFDIWGQGTMVTVSS
VL: DIQMTQSPSTLSASVGDRVTITCRPSQSISNWLAWYQQKPGKAPKLLIYKASSLESGVPSRFSGSGSGTEFTLTISGLQPDDFATYYCQQYNTYWTFGQGTKVEIK
For the molecule B4, the Kd in test [2] amounted to 1.18 nM. In test [3], the Kd came out at 1.18 nM, the koff amounted to 0.00101 s⁻¹ and the kon was 855000 M⁻¹ s⁻¹.

B5: AB001480 (antibody, V domains shown)
VH: QVQLVESGGGVVQPGRSLRLSCAASGFTFSFYGMHWVRQAPGKGLEWVAVIWYDGSNKYYADSVRGRFTISRDNSKNTLYLQMNSLRAEDTAVYYCARVGNDYDDHGSALDMWGQGTMVTVSS
VL: DIQMTQSPSTLSASVGDRVTITCRASQSISSWLAWYQQKPGKAPKLLIYRASSLESGVPPRFSGSGSGTEFTLTISSLQPDDFGIYYCQQYNSRWTFGQGTKVEIK
For the molecule B5, the Kd in test [2] was found to be 1.18 nM. Moreover, in test [3], the Kd is 1.17 nM and 1.18 nM; the koff is 0.000659 s⁻¹; the kon is 561000 M⁻¹ s⁻¹.

B6: AB001387 (antibody, V domains shown)
VH: QVQLVESGGGVVQPGRSLRLSCAASGFTFSNYGMHWVRQAPGKGLEWVAVIWYDGSNKFYADSVKGRFTSSRDNSKNTLYLQMNSLRAEDTAVYYCARDGRFLTTVTTAYFDYWGQGTLVTVSS
VL: QSVLTQPPSVSGAPGQRVTISCTGSSSNIGAGYDVHWYQQLPGTAPKLLIYGNSNRPSGVPDRFSGSKSGTSASLAITGLQAEDEADYYCQSYDSSLSALVFGGGTKLTVL
For the molecule B6, in test [2], the Kd was 0.676 nM. Moreover, in test [3], the Kd is 0.676 nM, the koff is 0.00111 s⁻¹ and the kon worked out at 1.65e+06 M⁻¹ s⁻¹.

B7: AB-000356 LS (antibody, V domains shown)
VH: QVQLVESGGGVVQPGRSLRLSCAASGFTFRNFGMHWVRQTPGKGLEWVAVIWHDGSNKFYADSVEGRFTISRDNSKNMIYLQMNSLRVEDTAIYYCARDSLFYDHDNSGYYGYWGQGTLVTVSS
VL: QIVMTQSPATVSVSPGERATLSCRASRSVTSKLAWYQQKPGQAPRLLIYGASTRATGIPARFSGSGSGTEFTLTISSLQSEDFAVYFCQQYNNGFTFGPGTKVDFK
For the molecule B7, in test [2], the Kd was determined as 2.46 nM. For the same molecule, in test [3], the Kd worked out at 2.46 nM, the koff was 0.00107 s⁻¹ and the kon was determined as 436000 M⁻¹ s⁻¹.

B8: 356-ALE-LS (antibody, human IgG1, kappa)
heavy: QVQLVESGGGVVQPGRSLRLSCAASGFTFRNFGMHWVRQTPGKGLEWVAVIWHDGSNKFYADSVEGRFTISRDNSKNMIYLQMNSLRVEDTAIYYCARDSLFYDHDNSGYYGYWGQGTLVTVSSASTKGPSVFPLAPSSKSTSGGTAALGCLVKDYFPEPVTVSWNSGALTSGVHTFPAVLQSSGLYSLSSVVTVPSSSLGTQTYICNVNHKPSNTKVDKKVEPKSCDKTHTCPPCPAPELLAGPSVFLFPPKPKDTLMISRTPEVTCVVVDVSHEDPEVKFNWYVDGVEVHNAKTKPREEQYNSTYRVVSVLTVLHQDWLNGKEYKCKVSNKALPLPEEKTISKAKGQPREPQVYTLPPSRDELTKNQVSLTCLVKGFYPSDIAVEWESNGQPENNYKTTPPVLDSDGSFFLYSKLTVDKSRWQQGNVFSCSVLHEALHSHYTQKSLSLSPGK
light: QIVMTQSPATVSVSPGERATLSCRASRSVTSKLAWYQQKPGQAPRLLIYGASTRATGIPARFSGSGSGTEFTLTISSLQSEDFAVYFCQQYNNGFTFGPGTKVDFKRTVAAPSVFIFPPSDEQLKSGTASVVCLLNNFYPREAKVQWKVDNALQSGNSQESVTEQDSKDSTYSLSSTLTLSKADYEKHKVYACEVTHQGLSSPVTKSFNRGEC
B8: the “EC50 in ADCP assay” value in test [4] was < 0.001 nM. Further, in test [5], the binding result is recorded as “no binding (tested: 300 nM)”.

B9: 356-DEA-FV-LS (antibody, human IgG1, kappa)
heavy: QVQLVESGGGVVQPGRSLRLSCAASGFTFRNFGMHWVRQTPGKGLEWVAVIWHDGSNKFYADSVEGRFTISRDNSKNMIYLQMNSLRVEDTAIYYCARDSLFYDHDNSGYYGYWGQGTLVTVSSASTKGPSVFPLAPSSKSTSGGTAALGCLVKDYFPEPVTVSWNSGALTSGVHTFPAVLQSSGLYSLSSVVTVPSSSLGTQTYICNVNHKPSNTKVDKKVEPKSCDKTHTCPPCPAPELLAGPDVFLFPPKPKDVLMISRTPEVTCVVVDVSHEDPEVKFNWYVDGVEVHNFKTKPREEQYNSTYRVVSVLTVLHQDWLNGKEYKCKVSNKALPAPEEKTISKAKGQPREPQVYTLPPSRDELTKNQVSLTCLVKGFYPSDIAVEWESNGQPENNYKTTPPVLDSDGSFFLYSKLTVDKSRWQQGNVFSCSVLHEALHSHYTQKSLSLSPGK
light: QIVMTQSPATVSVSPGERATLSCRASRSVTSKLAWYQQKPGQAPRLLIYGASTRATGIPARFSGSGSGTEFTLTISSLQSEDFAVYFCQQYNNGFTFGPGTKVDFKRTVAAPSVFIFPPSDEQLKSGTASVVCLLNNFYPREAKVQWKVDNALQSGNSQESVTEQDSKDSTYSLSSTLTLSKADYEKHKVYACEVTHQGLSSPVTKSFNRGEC
For B9, the “EC50 in ADCP assay” value in test [4] was < 0.001 nM. Also, the binding result in test [5] is recorded as “no binding (tested: 300 nM)”.

B10: AB001472 (antibody, V domains shown)
VH: QVQLVESGGGVVQPGRSLRLSCAASGFTFSSYGMHWVRQAPGKGLEWVAVIWYDGSNKYYADSVKGRFTISRDNSQNTLFLQMNSLRAEDTAVYYCARVGEYSSSPDWGAAFDIWGQGTMVTVSS
VL: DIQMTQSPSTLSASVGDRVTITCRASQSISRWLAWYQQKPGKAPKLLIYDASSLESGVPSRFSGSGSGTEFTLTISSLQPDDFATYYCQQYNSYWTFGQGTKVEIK
As for B10, the Kd in test [2] was 2.11 nM. Besides, in test [3], the Kd worked out at 2.11 nM, the koff came to 0.000518 s⁻¹ and the kon came out at 246000 M⁻¹ s⁻¹.
